# Experiments:
# [1] = molecular target: LCMV Gp61-80 peptide … presented by MHC-II of dendritic cells (lymphocytic choriomeningitis virus (LCMV)); experiment: cell-based or functional assay
# [2] = molecular target: SIINFEKL N4 peptide (OVA257-264) presented on MHC-I H-2Kb of dendritic cells (mouse); experiment: cell-based or functional assay
# Chain of LCMV Gp61-80 peptide … presented by MHC-II of dendritic cells (lymphocytic choriomeningitis virus (LCMV)) (P07399 61-80): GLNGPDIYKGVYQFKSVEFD
Substance,percentage of OT-II CD4+ T cells biotinylated by peptide-pulsed DC-FT [1],"signal-to-background ratio of biotin labeling on OT-I CD8+ cells (iDC-FT pulsed with 10 nM peptide, flow cytometry) (ratio (signal:background)) [2]","signal-to-background ratio of biotin labeling on OT-I CD8+ cells (iDC-FT pulsed with 100 nM peptide, flow cytometry) (ratio (signal:background)) [2]","signal/background ratio of biotinylated OT-I CD8+ T cells, DC-FT made by Method 1 (background: DC-enzyme primed with LCMV GP33-41) [2]","signal/background ratio of biotinylated OT-I CD8+ T cells, DC-NHS-FT made by Method 2 (background: DC-enzyme primed with LCMV GP33-41) [2]","streptavidin-APC+ OT-I CD8+ cells, DC-FT made by Method 1 [2]","streptavidin-APC+ OT-I CD8+ cells, DC-NHS-FT made by Method 2 [2]"
"TCR of OT-II CD4+ T cells, specific for the OVA323-339 peptide",1.68%,,,,,,
"transgenic T cell receptor (TCR) of OT-I CD8+ T cells, specific for the SIINFEKL N4 of ovalbumin presented on MHC I",,10,66,592,9.2,77%,16%
